Legend:
biotin-labeled mouse ADM [1] = target: T1, biotin-labeled mouse ADM (mouse, not fully specified; biotin label (named mouse ADM-C-biotin in Example 1.4; position of the biotin not stated for the other lots)); assay: BLI (Octet RED96e), biotinylated antigen on streptavidin sensor, antibody 100 nM, 1:1 fit
T1 construct: Synthetic peptide; also called mouse ADM-C-biotin; mADM-Biotin
T1 peptide: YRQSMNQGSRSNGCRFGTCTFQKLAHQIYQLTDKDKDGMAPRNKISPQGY
Protocol: (§1) The affinity of the candidate antibody for biotin-labeled human ADM (human ADM-C-biotin for short, the sequence of human ADM is set forth in SEQ ID NO: 4) and mouse ADM (mouse ADM-C-biotin for short, the sequence of mouse ADM is set forth in SEQ ID NO: 5) was determined by adopting Octet RED96e (Fortebio). The antigens and antibody were all diluted with 1× PBST, the concentration of the antigen used was 2 μg/mL, and the working concentration of the antibody used was 100 nM.
(§2) First, the sample was added to a 96-well plate (Greiner bio-one, 655209) with a system of 200 μL/well. Software parameters were then set, the plate temperature was set to 30° C., and the standard kinetic signal was collected at a frequency of 5.0 HZ. Next, a streptavidin sensor (Fortébio, Cat. No. 18-5020) was pre-wetted with 1× PBST for 10 min and then tested on a machine. Each cycle included the following steps: 1) immersing the sensor in a buffer for 180 s to stabilize the baseline; 2) immobilizing the antigen for 10 s, allowing the antigen to bind to the sensor, and controlling the binding amount of the antigen between 0.5 nm and 1.0 nm; 3) immersing the sensor in the buffer for 180 s; 4) binding the antigen to the antibody for the binding time of 180 s; and 5) dissociating the antigen and the antibody for 10 min.
(§3) The equilibrium dissociation constant (KD) of the antibody was calculated by measuring the association rate (Kon) and the dissociation rate (Koff) of the antigen-antibody in a 1:1 binding manner by adopting the Data Analysis 12.0 software from Fortebio.

biotin-labeled human ADM [2] = target: T2, biotin-labeled human ADM (human, not fully specified; biotin label (named human ADM-C-biotin in Example 1.4; position of the biotin not stated for the other lots)); assay: as above
T2 construct: Synthetic peptide; also called human ADM-C-biotin; hADM-Biotin
T2 peptide: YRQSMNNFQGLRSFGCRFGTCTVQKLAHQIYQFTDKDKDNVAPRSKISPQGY
Protocol: as §1, §2, §3

[3] = target: T3, 21 amino acid polypeptide at the N-terminus of human ADM (human); assay: ELISA, peptide coated at 1.0 ug/mL, hybridoma supernatant
T3 construct: Coated on the ELISA plate in the hybridoma screening; also called YY-21
T3 peptide: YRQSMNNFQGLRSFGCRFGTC
Protocol: (§4) YY-21 or YY-19 was diluted with PBS to 1.0 μg/mL, added to a 96-well plate (Corning, 9018), with 100 μL/well, and incubated at 4° C. overnight for coating. The ELISA plate was washed 3 times with a washing buffer (PBS+0.05% Tween 20) on an automatic plate washer the next day. 300 μL of a blocking buffer (PBS+0.05% Tween 20+1% BSA) was added to each well, and the plate was placed at room temperature for 1 h for blocking. The plate was then washed 3 times with the washing buffer on the automatic plate washer, and the hybridoma supernatant was added to each well of the ELISA plate. The plate was placed and incubated at room temperature for 1 h, and then washed 3 times according to the method described above. Goat Anti-mouse IgG Fc-HRP (Sigma, A0168) or Goat Anti-rat-IgG-HRP (Sigma, A5795) was diluted in 1:5000 with the blocking buffer, with 100 μL/well. The plate was placed and incubated at room temperature for 1 h. The plate was then washed 3 times according to the method described above. A TMB substrate solution was added with 100 μL/well and incubated at room temperature for 10 min, then 50 μL of 1.0 M hydrochloric acid was added to each well to terminate the reaction, and the plate was read by a microplate reader at OD₄₅₀ nm. […]

[4] = target: T4, 19 amino acid polypeptide at the N-terminus of mouse ADM (mouse); assay: as above
T4 construct: Coated on the ELISA plate in the hybridoma screening; also called YY-19
T4 peptide: YRQSMNQGSRSNGCRFGTC
Protocol: as §4

biotin-labeled human ADM [5] = target: T2, biotin-labeled human ADM; assay: ELISA of E. coli culture supernatant of phage library monoclones
biotin-labeled mouse ADM [6] = target: T1, biotin-labeled mouse ADM; assay: flow staining of yeast-displayed Fab at graded antigen concentrations
Text: (§5) For the first round of screening products of JYYDL227, 46 monoclones were picked for sequencing, and finally, a yeast monoclonal colony with a unique sequence was obtained for EC₅₀ identification by flow staining.
(§6) According to the staining results of the clones (as shown in Table 6) in combination with the similarity of the sequences of the clones, the monoclones expressing antibodies Ab2004.Am31 (with amino acid sequences of variable regions set forth in SEQ ID NOs: 31 and 36), Ab2004.Am32 (with amino acid sequences of variable regions set forth in SEQ ID NOs: 31 and 37), Ab2004.Am33 (with amino acid sequences of variable regions set forth in SEQ ID NOs: 32 and 36), Ab2004.Am34 (with amino acid sequences of variable regions set forth in SEQ ID NOs: 33 and 38), Ab2004.Am35 (with amino acid sequences of variable regions set forth in SEQ ID NOs: 31 and 38), Ab2004.Am36 (with amino acid sequences of variable regions set forth in SEQ ID NOs: 31 and 39), Ab2004.Am37 (with amino acid sequences of variable regions set forth in SEQ ID NOs: 34 and 38), Ab2004.Am38 (with amino acid sequences of variable regions set forth in SEQ ID NOs: 34 and 40), Ab2004.Am39 (with amino acid sequences of variable regions set forth in SEQ ID NOs: 33 and 41), and Ab2004.Am40 (with amino acid sequences of variable regions set forth in SEQ ID NOs: 31 and 42) were finally selected. The amino acid sequences of the Chothia-numbered CDRs of the candidate antibodies are shown in Table 7, and the amino acid sequences of the light and heavy chain variable regions of the candidate antibodies are shown in Table 8.

biotin-labeled human ADM [7] = target: T2, biotin-labeled human ADM; assay: as above
Text: as §5, §6

B1: hybridoma clone 40E12 (antibody, V domains shown)
VH: QIQLVQSGPELRKPGETVKISCKASGYAFTTFGMSWIKQAPGQGLKWMGWINTYSRVPKYTDDFKGRFAFSLEISATTAYLLINNLKNGDTATYFCARGYGGEGGLGFSGQGTTLTVSS
VL: DVLMTQTPFSLPVSLGDQASISCRSSQSIIDSDGNTYLEWYLQKPGQSPKLLIYKVSNRFSGVPDRFSGSGSGTDFTLRISRVEAEDLGVYYCFQGSHFPYTFAGGTKLELK
notes: Murine hybridoma antibody purified on protein A; also called candidate antibody 40E12
- Kd (biotin-labeled mouse ADM [1]): 0.236 nM
- koff (biotin-labeled mouse ADM [1]): 8.9e-05 s⁻¹
- kon (biotin-labeled mouse ADM [1]): 377000 M⁻¹ s⁻¹
- Kd (biotin-labeled human ADM [2]): 0.314 nM
- koff (biotin-labeled human ADM [2]): 0.000109 s⁻¹
- kon (biotin-labeled human ADM [2]): 347000 M⁻¹ s⁻¹
- binding result [3]: binds
- binding result [4]: binds

B2: monoclone 1F12 (from the fully human single-chain phage antibody library) (scFv, V domains shown)
VH: QVQLVQSGAEVKKPGASVKVSCKASGYTFTSYGISWVRQAPGQGLEWMGWISAYNGNTNYAQKLQGRVTMTRDTSTSTAYMELRSLRSDDTAVYYCAREGRSGGSFDIWGQGTMVTVSS
VL: DIQMTQSPSSLSASVGDRVTITCRASQGISSYLAWYQQKPGKAPKLLIYDASNLETGVPSRFSGSGSGTDFTFTISSLQPEDIATYYCQQYDNLPLTFGGGTKVEIK
notes: Tested as E. coli culture supernatant of a clone of a single-chain library
- binding result (biotin-labeled human ADM [5]): binds

B3: Ab2004.Am39 (Fab displayed on yeast) (Fab, V domains shown)
VH: QVQLVQSGAEVKKPGASVKVSCKASGYTFTHYGIAWVRQAPGQGLEWMGWISAYQGNTNYAQKLQGRVTMTRDTSTSTAYMELRSLRSDDTAVYYCAREGRWGGSFNIWGQGTMVTVSS
VL: DIQMTQSPSSLSASVGDRVTITCRASQGISSYLAWYQQKPGKAPKLLIYDASNLETGVPSRFSGSGSGTDFTFTISSLQPEDIATYYCQQYDDLDLTFGGGTKVEIK
notes: Yeast monoclonal colony of library JYYDL227 (Fab display)
- EC50 (biotin-labeled mouse ADM [6]): 4.23 nM
- EC50 (biotin-labeled human ADM [7]): 0.86 nM

B4: Ab2004.Am40 (Fab displayed on yeast) (Fab, V domains shown)
VH: QVQLVQSGAEVKKPGASVKVSCKASGYTFTQYGIAWVRQAPGQGLEWMGWISAYQGNTNYAQKLQGRVTMTRDTSTSTAYMELRSLRSDDTAVYYCAREGRWGGSFNIWGQGTMVTVSS
VL: DIQMTQSPSSLSASVGDRVTITCRASQGISSYLAWYQQKPGKAPKLLIYDASNLETGVPSRFSGSGSGTDFTFTISSLQPEDIATYYCQQYDDLPLSFGGGTKVEIK
notes: as for B3
- EC50 (biotin-labeled mouse ADM [6]): 2.5 nM
- EC50 (biotin-labeled human ADM [7]): 0.5 nM

Reference: patent US20260035456A1 (SHANGHAI JEYOU PHARMACEUTICAL, published 2026)
